Reference: article PMC3892207 (Journal of the American Chemical Society, 2013)

How the values were obtained:
Experiment in all cases: SEC
[1] = biological target: T1, S100A9(C3S) with H105A (S100A9 subunit of CP-Ser(H105A)) (human, UniProt P06702 1-114, C3S | H105A)
T1 sequence (looked up): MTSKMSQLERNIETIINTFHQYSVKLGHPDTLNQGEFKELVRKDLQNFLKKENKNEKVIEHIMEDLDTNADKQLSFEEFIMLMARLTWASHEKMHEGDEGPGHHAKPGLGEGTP

[2] = biological target: T2, S100A9(C3S) with E96A (S100A9 subunit of CP-Ser(E96A)) (human, UniProt P06702 1-114, C3S | E96A)
T2 sequence (looked up): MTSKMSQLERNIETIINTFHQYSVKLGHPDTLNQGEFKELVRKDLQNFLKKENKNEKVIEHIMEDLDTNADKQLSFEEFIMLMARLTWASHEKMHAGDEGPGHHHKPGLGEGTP

[3] = biological target: T3, S100A9(C3S) with E99A (S100A9 subunit of CP-Ser(E99A)) (human, UniProt P06702 1-114, C3S | E99A)
T3 sequence (looked up): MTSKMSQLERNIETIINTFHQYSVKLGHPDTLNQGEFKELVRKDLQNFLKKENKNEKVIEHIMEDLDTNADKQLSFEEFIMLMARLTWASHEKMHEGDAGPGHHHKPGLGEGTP

[4] = biological target: T4, S100A9(C3S) with D98A (S100A9 subunit of CP-Ser(D98A)) (human, UniProt P06702 1-114, C3S | D98A)
T4 sequence (looked up): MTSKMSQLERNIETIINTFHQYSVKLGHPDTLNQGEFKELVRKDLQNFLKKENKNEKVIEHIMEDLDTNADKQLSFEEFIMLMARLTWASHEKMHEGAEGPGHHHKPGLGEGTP

[5] = biological target: T5, S100A9(C3S) truncated after residue 101 (S100A9 subunit of CP-Ser-Δ101) (human, UniProt P06702 1-90, C3S)
T5 sequence: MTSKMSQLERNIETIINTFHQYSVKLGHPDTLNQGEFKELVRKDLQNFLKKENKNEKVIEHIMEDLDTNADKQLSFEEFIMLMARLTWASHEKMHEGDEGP

[6] = biological target: T6, human-mouse S100A9 chimera (S100A9 subunit of CP-Ser-mT) (human | mouse, UniProt P06702 1-90, C3S)
T6 sequence: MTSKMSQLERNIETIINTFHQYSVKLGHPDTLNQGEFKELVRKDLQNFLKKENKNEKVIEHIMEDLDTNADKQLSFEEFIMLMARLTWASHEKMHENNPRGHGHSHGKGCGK

[7] = biological target: T7, S100A9(C3S) with E111A (S100A9 subunit of CP-Ser(E111A)) (human, UniProt P06702 1-114, C3S | E111A)
T7 sequence (looked up): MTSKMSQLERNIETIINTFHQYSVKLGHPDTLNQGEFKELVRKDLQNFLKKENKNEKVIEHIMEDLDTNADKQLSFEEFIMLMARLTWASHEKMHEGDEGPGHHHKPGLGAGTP

[8] = biological target: T8, S100A9(C3S) with H103A (S100A9 subunit of CP-Ser(H103A)) (human, UniProt P06702 1-114, C3S | H103A)
T8 sequence (looked up): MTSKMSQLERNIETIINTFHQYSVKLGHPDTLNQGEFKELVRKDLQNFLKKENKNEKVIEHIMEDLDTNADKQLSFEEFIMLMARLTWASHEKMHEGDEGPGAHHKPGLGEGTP

S100A9(C3S) = biological target: T9, S100A9(C3S) (human, UniProt P06702 1-90, C3S)
T9 sequence: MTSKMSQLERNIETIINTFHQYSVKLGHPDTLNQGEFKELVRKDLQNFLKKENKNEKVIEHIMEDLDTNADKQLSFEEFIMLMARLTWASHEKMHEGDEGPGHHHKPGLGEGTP

[9] = biological target: T10, S100A9(C3S) with H104A (S100A9 subunit of CP-Ser(H104A)) (human, UniProt P06702 1-114, C3S | H104A)
T10 sequence (looked up): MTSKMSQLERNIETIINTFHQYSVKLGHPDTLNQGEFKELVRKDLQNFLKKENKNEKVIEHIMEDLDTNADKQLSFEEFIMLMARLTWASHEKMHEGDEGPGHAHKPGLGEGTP

[10] = biological target: T11, S100A9(C3S) with K106A (S100A9 subunit of CP-Ser(K106A)) (human, UniProt P06702 1-114, C3S | K106A)
T11 sequence (looked up): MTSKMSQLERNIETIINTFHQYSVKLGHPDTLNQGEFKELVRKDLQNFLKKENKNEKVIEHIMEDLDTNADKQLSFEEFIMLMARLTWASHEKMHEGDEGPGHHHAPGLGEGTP

binding result [1]: binds | binding result [2]: binds | binding result [3]: binds | binding result [4]: binds | binding result [5]: binds | binding result [6]: binds | binding result [7]: binds | binding result [8]: binds | binding result (S100A9(C3S)): binds | binding result [9]: binds | binding result [10]: binds
B1: S100A8(C42S) (natural protein, human)
chain: MLTELEKALNSIIDVYHKYSLIKGNFHAVYRDDLKKLLETESPQYIRKKGADVWFKELDINTDGAVNFQEFLILVIKMGVAAHKKSHEESHKE
